Like-named read-outs stand apart in the source and are kept apart here.
Assays:
[1] = target: T1, human FcγRIII (CD16), CD16a (F158), on CD16-transfected Jurkat cells (human, UniProt P08637 17-254); assay: CD16 bridging assay, transient
T1 construct: whole, on cells

[2] = target: Human FcγRIIIa on natural killer (NK) cells of a donor (human, UniProt P08637 17-254); assay: cell-based or functional assay
[3] = target: T2, GST-tagged FcγRIII, CD16a (V158) (UniProt P08637 17-208, limits assumed); assay: AlphaScreen competition vs huIgG1 beads, purified
T2 construct: the canonical entry carries F there; Captured by biotinylated anti-GST mAb on streptavidin donor beads; also called GST-FcγRIII; not shown: GST tag
Method: The relative binding affinities to FcγRIII (CD16), of the variant antibodies, was determined using an AlphaScreen assay (Amplified Luminescent Proximity Homogeneous Assay, PerkinElmer, MA, USA). Laser excitation of a donor bead excites oxygen, which if in close proximity to an acceptor bead generates a cascade of chemiluminescent events, ultimately leading to fluorescence emission at 520-620 nm. […] The reaction was carried out for one hour in a 25 μl volume and plates were read in the Fusion Alpha reader (PerkinElmer).

[4] = target: T3, human C1q (Sigma C0660) (human, UniProt P02745 23-245; P02746 28-253; P02747 29-245); assay: C1q ELISA on CD2, purified
T3 construct: Bought protein; also called complement protein C1q
Method: (§1) The C1q binding assay was performed by coating 96 well Maxisorb ELISA plates (Nalge-Nunc Rochester, N.Y., USA) with 50 μl recombinant soluble human CD2 at 10 μg/ml overnight at 4° C. in PBS. The wells were aspirated and washed three times with wash buffer (PBS, 0.05% Tween 20) and blocked for >1 h with 200 μ/well of block/diluent buffer (0.1 M Na₂HPO₄, pH 7, 0.1 M NaCl, 0.05% Tween 20, 0.1% gelatin). The antibody to be tested was diluted in block/diluent buffer starting at 15 μg/ml with 3-fold dilutions. 50 μl were added per well, and the plates incubated for 2 h at room temperature. After aspirating and washing as above, 50 μl/well of 2 μg/ml of Sigma human C1q (C0660) diluted in block/diluent buffer was added and incubated for 1.5 h at room temperature. After aspirating and washing as above, 50 μl/well of chicken anti human C1q (Cedarlane laboratories CL2101AP), diluted 2,000-fold in block/diluent buffer, was added. After incubation for 1.5 h at room temperature, the wells were aspirated and washed as above. 50 μl/well of donkey F(ab′)₂ anti chicken IgY HRP conjugate (Jackson ImmunoResearch 703-036-155) diluted to 1:5,000 in block/diluent was then added, and the wells incubated for 1 h at room temperature. After aspirating and washing as above, 100 μl TMB substrate (420 μM TMB, 0.004% H₂O₂ in 0.1 M sodium acetate/citric acid buffer, pH 4.9) was added and incubated for 2 min before the reaction was stopped with 100 μl 2 N sulfuric acid. The absorbance was read at 450 nm with a Softmax P instrument, and Softmax software was used to determine the relative binding affinity (C value) with a 4-parameter fit.

[5] = target: T4, human FcγRI (CD64) on IFNγ-activated U937 cells (human, UniProt P12314 16-374); assay: CD64 bridging assay, purified
T4 construct: whole, on cells; also called FcγR1

[6] = target: T1, human FcγRIII (CD16), CD16a (F158), on …; assay: CD16 bridging assay, purified
[7] = target: T1, human FcγRIII (CD16), CD16a (F158), on …; assay: CD16 bridging assay, transient; remark: listed apart in the source
[8] = target: T1, human FcγRIII (CD16), CD16a (F158), on …; assay: summary of Table 5 assays
[9] = target: T1, human FcγRIII (CD16), CD16a (F158), on …; assay: CD16 bridging assay, purified; remark: listed apart in the source
[10] = target: T1, human FcγRIII (CD16), CD16a (F158), on …; assay: CD16 bridging assay, transient; remark: listed apart in the source
[11] = target: T2, GST-tagged FcγRIII, CD16a (V158); assay: summary of Table 4 assays (CD16a)
[12] = target: T3, human C1q (Sigma C0660); assay: C1q ELISA on CD2, transient
Method: as §1

[13] = target: T1, human FcγRIII (CD16), CD16a (F158), on …; assay: summary of Table 3 assays
[14] = target: T3, human C1q (Sigma C0660); assay: summary of Table 6 assays
[15] = target: T1, human FcγRIII (CD16), CD16a (F158), on …; assay: CD16 bridging assay, transient; remark: listed apart in the source

T2 sequence (P08637 17-208 F176V limits assumed): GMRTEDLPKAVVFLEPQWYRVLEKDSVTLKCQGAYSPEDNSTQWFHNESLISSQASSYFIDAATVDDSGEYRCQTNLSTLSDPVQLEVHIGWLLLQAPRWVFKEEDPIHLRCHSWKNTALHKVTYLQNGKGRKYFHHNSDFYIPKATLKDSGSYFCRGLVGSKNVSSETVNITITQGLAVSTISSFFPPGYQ
T4 sequence (P12314 16-374): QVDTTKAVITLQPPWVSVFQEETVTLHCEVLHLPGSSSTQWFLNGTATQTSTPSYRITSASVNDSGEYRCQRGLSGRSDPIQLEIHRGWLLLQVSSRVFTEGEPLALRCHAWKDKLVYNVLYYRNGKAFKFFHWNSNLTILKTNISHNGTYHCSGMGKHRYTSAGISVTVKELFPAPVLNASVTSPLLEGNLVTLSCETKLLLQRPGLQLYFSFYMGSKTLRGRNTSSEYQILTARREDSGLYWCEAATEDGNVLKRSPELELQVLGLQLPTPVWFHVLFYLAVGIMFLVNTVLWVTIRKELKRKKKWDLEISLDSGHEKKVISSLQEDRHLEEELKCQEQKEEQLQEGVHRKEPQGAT
T1 sequence (P08637 17-254): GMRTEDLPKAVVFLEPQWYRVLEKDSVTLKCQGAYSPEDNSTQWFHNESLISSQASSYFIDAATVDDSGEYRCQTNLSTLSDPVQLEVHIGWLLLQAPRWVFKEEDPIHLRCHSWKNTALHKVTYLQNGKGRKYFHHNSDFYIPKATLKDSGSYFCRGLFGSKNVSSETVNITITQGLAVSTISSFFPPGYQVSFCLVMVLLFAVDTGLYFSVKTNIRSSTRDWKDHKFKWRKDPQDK

B1: chCB6-huIgG1 I332E (antibody, name in EU numbering)
heavy: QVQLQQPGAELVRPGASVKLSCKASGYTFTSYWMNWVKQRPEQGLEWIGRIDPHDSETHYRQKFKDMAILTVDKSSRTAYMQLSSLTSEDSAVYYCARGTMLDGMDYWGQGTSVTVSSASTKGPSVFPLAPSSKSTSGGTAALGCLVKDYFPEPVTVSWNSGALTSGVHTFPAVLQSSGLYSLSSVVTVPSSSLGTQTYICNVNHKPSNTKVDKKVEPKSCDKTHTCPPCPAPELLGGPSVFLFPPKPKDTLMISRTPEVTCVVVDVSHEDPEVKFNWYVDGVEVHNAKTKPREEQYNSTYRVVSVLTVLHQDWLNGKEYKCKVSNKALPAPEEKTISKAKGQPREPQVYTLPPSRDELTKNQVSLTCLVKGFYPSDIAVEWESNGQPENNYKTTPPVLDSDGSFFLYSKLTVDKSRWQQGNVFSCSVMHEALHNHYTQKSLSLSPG
light: QIVLTQSPAIMSASPGEKVTMTCRASSSVSHMHWYQQKSGTSPKRWIYDTSKLASGVPARFSGSGSGTSYSLTISSVEAEDAATYYCQQWSSNPLTFGAGTKLELKRTVAAPSVFIFPPSDEQLKSGTASVVCLLNNFYPREAKVQWKVDNALQSGNSQESVTEQDSKDSTYSLSSTLTLSKADYEKHKVYACEVTHQGLSSPVTKSFNRGEC
notes: copies: 2 + 2
[1]
  fold increase in binding vs WT: 20 fold
[2]
  ADCC NK cell, purified (fold increase vs WT): 24 fold
[3]
  fold increase in binding vs WT: 8 fold
[4]
  binding result: binds
[5]
  binding result: binds
[6]
  fold increase in binding vs WT: 7 fold

B2: chCB6-huIgG1 E294S (antibody, name in EU numbering)
heavy: not shown
light: B1 light
notes: copies: 2 + 2
[7]
  fold decrease in binding vs WT: 12 fold
[8]
  fold decrease in binding vs WT: > 10 fold

B3: chCB6-huIgG1 S239D/I332D (antibody, name in EU numbering)
heavy: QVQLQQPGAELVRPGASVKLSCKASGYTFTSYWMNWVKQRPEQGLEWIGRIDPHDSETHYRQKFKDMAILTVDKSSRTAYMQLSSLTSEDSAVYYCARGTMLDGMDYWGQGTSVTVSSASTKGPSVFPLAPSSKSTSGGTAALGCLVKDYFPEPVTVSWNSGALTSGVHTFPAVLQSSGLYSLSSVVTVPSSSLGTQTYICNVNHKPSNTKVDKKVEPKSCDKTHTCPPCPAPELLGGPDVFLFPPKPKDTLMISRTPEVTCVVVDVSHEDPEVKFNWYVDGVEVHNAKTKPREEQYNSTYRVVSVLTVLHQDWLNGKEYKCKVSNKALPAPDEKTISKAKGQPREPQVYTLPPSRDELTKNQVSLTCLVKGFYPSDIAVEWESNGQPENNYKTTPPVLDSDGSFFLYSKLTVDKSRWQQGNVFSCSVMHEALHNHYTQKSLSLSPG
light: B1 light
notes: copies: 2 + 2
[9]
  fold increase in binding vs WT: 6 fold
[10]
  fold increase in binding vs WT: 4 fold
[3]
  fold increase in binding vs WT: 15 fold
[11]
  fold increase in binding vs WT: > 10 fold
[4]
  binding result: binds

B4: chCB6-huIgG1 S239D/H435S (antibody, name in EU numbering)
heavy: not shown
light: B1 light
notes: copies: 2 + 2
[9]
  fold increase in binding vs WT: 6 fold
[10]
  fold increase in binding vs WT: 3 fold

B5: chCB6-huIgG1 R301Q (antibody, name in EU numbering)
heavy: not shown
light: B1 light
notes: copies: 2 + 2
[12]
  binding result: binds
[7]
  fold decrease in binding vs WT: 13 fold
[8]
  fold decrease in binding vs WT: > 10 fold

B6: chCB6-huIgG1 S239D/I332E (antibody, name in EU numbering)
heavy: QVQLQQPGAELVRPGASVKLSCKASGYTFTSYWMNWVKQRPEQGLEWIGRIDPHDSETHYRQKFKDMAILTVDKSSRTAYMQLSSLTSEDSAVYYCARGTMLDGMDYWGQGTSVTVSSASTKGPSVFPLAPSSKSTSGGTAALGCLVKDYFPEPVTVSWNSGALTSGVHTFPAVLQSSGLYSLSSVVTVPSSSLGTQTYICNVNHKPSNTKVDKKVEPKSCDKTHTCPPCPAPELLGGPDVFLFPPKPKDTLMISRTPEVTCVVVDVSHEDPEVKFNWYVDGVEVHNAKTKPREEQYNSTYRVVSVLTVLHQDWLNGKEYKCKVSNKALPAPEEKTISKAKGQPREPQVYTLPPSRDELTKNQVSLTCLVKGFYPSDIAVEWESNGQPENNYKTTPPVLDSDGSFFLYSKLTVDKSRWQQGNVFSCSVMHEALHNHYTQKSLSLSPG
light: B1 light
notes: copies: 2 + 2
[9]
  fold increase in binding vs WT: 8 fold
[10]
  fold increase in binding vs WT: 12 fold
[3]
  fold increase in binding vs WT: 26 fold
[11]
  fold increase in binding vs WT: > 10 fold
[4]
  binding result: binds

B7: chCB6-huIgG1 L328D (antibody, name in EU numbering)
heavy: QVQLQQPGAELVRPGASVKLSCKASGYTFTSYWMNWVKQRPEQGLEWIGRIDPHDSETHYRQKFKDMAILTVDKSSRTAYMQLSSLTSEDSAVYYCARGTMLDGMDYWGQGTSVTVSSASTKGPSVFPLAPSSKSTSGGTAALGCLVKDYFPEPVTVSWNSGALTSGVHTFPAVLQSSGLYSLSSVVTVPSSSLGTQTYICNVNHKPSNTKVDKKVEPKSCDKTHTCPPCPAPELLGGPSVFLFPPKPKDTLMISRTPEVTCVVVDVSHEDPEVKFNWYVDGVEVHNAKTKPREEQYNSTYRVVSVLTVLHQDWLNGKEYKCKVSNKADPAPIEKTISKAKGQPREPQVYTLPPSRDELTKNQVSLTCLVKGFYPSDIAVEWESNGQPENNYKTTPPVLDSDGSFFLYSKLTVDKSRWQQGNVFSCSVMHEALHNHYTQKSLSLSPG
light: B1 light
notes: copies: 2 + 2
[1]
  binding result: no binding
[13]
  fold decrease in binding vs WT: > 10 fold
[4]
  binding result: no binding
[5]
  binding result: binds

B8: chCB6-huIgG1 A378Y (antibody, name in EU numbering)
heavy: not shown
light: B1 light
notes: copies: 2 + 2
[12]
  fold increase in binding vs WT: 6 fold
[14]
  fold increase in binding vs WT: > 5 fold
[15]
  binding result: binds

B9: chCB6-huIgG1 S298N (antibody, name in EU numbering)
heavy: not shown
light: B1 light
notes: copies: 2 + 2
[1]
  fold decrease in binding vs WT: 13 fold
[13]
  fold decrease in binding vs WT: > 10 fold

B10: chCB6-huIgG1 L328E (antibody, name in EU numbering)
heavy: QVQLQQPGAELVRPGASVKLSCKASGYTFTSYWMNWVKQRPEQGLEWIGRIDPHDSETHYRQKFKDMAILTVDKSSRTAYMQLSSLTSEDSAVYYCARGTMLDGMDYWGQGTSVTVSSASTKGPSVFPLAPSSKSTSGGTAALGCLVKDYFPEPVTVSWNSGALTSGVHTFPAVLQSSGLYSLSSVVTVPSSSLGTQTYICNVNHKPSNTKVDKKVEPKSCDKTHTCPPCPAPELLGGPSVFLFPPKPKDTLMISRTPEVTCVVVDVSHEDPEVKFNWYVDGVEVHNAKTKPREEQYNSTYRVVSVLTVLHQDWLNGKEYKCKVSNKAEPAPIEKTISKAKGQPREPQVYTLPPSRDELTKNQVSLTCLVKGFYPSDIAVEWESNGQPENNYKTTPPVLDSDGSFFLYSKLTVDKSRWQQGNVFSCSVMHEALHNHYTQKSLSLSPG
light: B1 light
notes: copies: 2 + 2
[1]
  fold decrease in binding vs WT: 30 fold
[13]
  fold decrease in binding vs WT: > 10 fold
[4]
  binding result: no binding
[5]
  fold decrease in binding vs WT: 14 fold
[6]
  fold decrease in binding vs WT: 9 fold

B11: chCB6-huIgG1 S239E/I332D (antibody, name in EU numbering)
heavy: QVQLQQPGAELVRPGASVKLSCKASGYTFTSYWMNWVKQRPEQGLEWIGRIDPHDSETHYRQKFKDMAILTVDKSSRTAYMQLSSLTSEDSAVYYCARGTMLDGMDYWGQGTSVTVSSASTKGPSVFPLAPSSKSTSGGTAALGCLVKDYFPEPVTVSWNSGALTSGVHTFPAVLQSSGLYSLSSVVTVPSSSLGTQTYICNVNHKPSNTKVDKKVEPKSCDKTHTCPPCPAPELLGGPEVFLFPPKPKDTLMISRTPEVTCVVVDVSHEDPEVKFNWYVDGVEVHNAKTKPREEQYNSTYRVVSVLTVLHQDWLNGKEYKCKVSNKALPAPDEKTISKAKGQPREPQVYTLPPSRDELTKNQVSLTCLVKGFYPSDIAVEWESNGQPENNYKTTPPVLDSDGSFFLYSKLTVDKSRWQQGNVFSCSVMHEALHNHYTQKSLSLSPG
light: B1 light
notes: copies: 2 + 2
[9]
  fold increase in binding vs WT: 8 fold
[10]
  fold increase in binding vs WT: 3 fold
[3]
  fold increase in binding vs WT: 7 fold
[4]
  binding result: binds

B12: chCB6-huIgG1 A378F (antibody, name in EU numbering)
heavy: not shown
light: B1 light
notes: copies: 2 + 2
[12]
  fold increase in binding vs WT: 6 fold
[14]
  fold increase in binding vs WT: > 5 fold
[15]
  binding result: binds

B13: chCB6-huIgG1 A378W (antibody, name in EU numbering)
heavy: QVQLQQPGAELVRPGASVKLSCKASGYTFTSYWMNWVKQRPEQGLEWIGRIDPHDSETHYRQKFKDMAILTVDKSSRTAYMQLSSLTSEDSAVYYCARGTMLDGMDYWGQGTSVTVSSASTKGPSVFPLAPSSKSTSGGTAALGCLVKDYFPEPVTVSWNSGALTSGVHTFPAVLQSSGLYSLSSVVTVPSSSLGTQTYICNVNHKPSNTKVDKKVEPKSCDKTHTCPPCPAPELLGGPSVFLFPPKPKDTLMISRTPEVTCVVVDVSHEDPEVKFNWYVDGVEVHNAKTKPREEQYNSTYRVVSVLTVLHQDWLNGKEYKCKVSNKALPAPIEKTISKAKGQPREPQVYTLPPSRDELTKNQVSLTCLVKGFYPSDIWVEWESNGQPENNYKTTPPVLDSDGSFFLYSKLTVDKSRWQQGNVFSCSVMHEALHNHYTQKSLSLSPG
light: B1 light
notes: copies: 2 + 2
[12]
  fold increase in binding vs WT: 7 fold
[14]
  fold increase in binding vs WT: > 5 fold
[15]
  binding result: binds

B14: chCB6-huIgG1 triple mutant S298A/E333A/K334A (antibody, name in EU numbering)
heavy: QVQLQQPGAELVRPGASVKLSCKASGYTFTSYWMNWVKQRPEQGLEWIGRIDPHDSETHYRQKFKDMAILTVDKSSRTAYMQLSSLTSEDSAVYYCARGTMLDGMDYWGQGTSVTVSSASTKGPSVFPLAPSSKSTSGGTAALGCLVKDYFPEPVTVSWNSGALTSGVHTFPAVLQSSGLYSLSSVVTVPSSSLGTQTYICNVNHKPSNTKVDKKVEPKSCDKTHTCPPCPAPELLGGPSVFLFPPKPKDTLMISRTPEVTCVVVDVSHEDPEVKFNWYVDGVEVHNAKTKPREEQYNATYRVVSVLTVLHQDWLNGKEYKCKVSNKALPAPIAATISKAKGQPREPQVYTLPPSRDELTKNQVSLTCLVKGFYPSDIAVEWESNGQPENNYKTTPPVLDSDGSFFLYSKLTVDKSRWQQGNVFSCSVMHEALHNHYTQKSLSLSPG
light: B1 light
notes: Assay control; triple mutant as described by Shields et al; also called Triple Mutation S298A, E333A, K334A; copies: 2 + 2
[1]
  fold increase in binding vs WT: 10 fold
[2]
  ADCC NK cell, purified (fold increase vs WT): 21 fold
[3]
  fold increase in binding vs WT: 4 fold
[4]
  fold decrease in binding vs WT: 2 fold
[5]
  fold decrease in binding vs WT: 4 fold
[6]
  fold increase in binding vs WT: 5 fold

B15: chCB6-huIgG1 F241Q (antibody, name in EU numbering)
heavy: not shown
light: B1 light
notes: copies: 2 + 2
[1]
  fold decrease in binding vs WT: 30 fold
[13]
  fold decrease in binding vs WT: > 10 fold

B16: chCB6-huIgG1 S239E/I332E (antibody, name in EU numbering)
heavy: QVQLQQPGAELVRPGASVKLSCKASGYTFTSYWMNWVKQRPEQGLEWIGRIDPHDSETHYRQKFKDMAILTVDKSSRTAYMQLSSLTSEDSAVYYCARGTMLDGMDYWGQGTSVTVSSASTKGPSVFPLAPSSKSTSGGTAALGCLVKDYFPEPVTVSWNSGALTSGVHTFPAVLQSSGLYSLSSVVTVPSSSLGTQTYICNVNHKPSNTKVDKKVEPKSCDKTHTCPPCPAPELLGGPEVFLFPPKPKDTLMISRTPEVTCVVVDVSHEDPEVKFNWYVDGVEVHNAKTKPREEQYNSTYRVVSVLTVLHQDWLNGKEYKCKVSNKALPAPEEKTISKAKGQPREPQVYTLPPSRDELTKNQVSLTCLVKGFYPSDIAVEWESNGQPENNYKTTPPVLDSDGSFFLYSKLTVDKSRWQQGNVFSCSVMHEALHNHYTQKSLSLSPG
light: B1 light
notes: copies: 2 + 2
[9]
  fold increase in binding vs WT: 6 fold
[10]
  fold increase in binding vs WT: 3 fold
[3]
  fold increase in binding vs WT: 10 fold
[4]
  binding result: binds

B17: chCB6-huIgG1 Y296H (antibody, name in EU numbering)
heavy: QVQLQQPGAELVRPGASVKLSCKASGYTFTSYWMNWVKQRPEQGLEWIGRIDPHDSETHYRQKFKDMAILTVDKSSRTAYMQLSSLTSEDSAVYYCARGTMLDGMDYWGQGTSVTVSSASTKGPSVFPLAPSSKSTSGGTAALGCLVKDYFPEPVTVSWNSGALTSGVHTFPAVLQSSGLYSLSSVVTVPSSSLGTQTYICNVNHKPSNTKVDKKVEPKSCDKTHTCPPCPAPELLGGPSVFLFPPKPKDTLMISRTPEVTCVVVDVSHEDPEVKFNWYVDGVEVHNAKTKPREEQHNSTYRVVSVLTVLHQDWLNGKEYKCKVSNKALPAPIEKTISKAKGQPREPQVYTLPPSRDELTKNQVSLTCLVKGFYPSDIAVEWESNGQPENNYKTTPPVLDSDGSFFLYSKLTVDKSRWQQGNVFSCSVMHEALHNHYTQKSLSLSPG
light: B1 light
notes: copies: 2 + 2
[12]
  fold decrease in binding vs WT: 3 fold
[7]
  fold decrease in binding vs WT: 18 fold
[8]
  fold decrease in binding vs WT: > 10 fold

From patent publication US20100203046A1 (Biogen, published 2010)
